Laboratory results reported in PMC9893541 (BMC Biology, 2023).

How the values were obtained:
Assay in all cases: SPR; BIAcore T-200; chimeric Fc-type 1 receptor coupled to a Series S Protein A chip; ligands 6.25-0.049 nM flowed at 50 uL/min, 300 s association, 1000 s dissociation; 20 mM HEPES pH 7.4, 350 mM NaCl, 0.005 % P-20, 0.5 mg/mL BSA, 3.4 mM EDTA; kinetic 1:1 fit (also a bivalent fit); apparent KD = kd/ka; average of N=2
Settings in all cases: both partners purified
[1] = target: T1, BMP4 homodimer (human, UniProt P12644 293-408)
T1 construct: additional Met residue on the N-terminus of the BMP4 construct; bone morphogenetic protein 4 (BMP4), mature domain; Dimer stabilised by an inter-chain disulfide bond; also called homodimeric BMP4
T1 sequence: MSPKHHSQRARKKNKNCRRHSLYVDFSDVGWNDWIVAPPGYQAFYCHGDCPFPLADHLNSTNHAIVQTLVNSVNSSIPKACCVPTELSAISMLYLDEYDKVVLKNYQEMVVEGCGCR

[2] = target: T2, GDF5 homodimer (human, UniProt P43026 382-501)
T2 construct: Growth and Differentiation Factor 5 (GDF5), mature domain; Dimer stabilised by an inter-chain disulfide bond; also called homodimeric GDF5; Growth and Differentiation Factor 5
T2 sequence (looked up): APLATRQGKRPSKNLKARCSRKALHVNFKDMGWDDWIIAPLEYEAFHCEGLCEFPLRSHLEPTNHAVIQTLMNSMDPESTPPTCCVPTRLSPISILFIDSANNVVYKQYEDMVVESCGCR

[3] = target: T3, BMP4/GDF5 heterodimer (human, UniProt P12644 293-408; P43026 382-501)
T3 construct: additional Met residue on the N-terminus of the BMP4 construct; bone morphogenetic protein 4 (BMP4), mature domain; Growth and Differentiation Factor 5 (GDF5), mature domain; Made by people from two natural mature chains; disulfide-linked dimer; also called GDF5/BMP4; copies: 1 + 1
T3 sequence 1: T1 sequence
T3 sequence 2: T2 sequence (looked up)

[4] = target: T4, BMP2 homodimer (human, UniProt P12643 283-396)
T4 construct: bone morphogenetic protein 2 (BMP2), mature domain; cDNA received from Hongwen Ma; Dimer stabilised by an inter-chain disulfide bond; Cloned in pET21a; no tag is mentioned; also called homodimeric BMP2; bone morphogenetic protein 2

[5] = target: T5, BMP2/GDF5 heterodimer (human, UniProt P12643 283-396; P43026 382-501)
T5 construct: bone morphogenetic protein 2 (BMP2), mature domain; Growth and Differentiation Factor 5 (GDF5), mature domain; Made by people from two natural mature chains; disulfide-linked dimer; also called GDF5/BMP2; WT heterodimer; copies: 1 + 1
T5 sequence (P12643 283-396, one chain of several): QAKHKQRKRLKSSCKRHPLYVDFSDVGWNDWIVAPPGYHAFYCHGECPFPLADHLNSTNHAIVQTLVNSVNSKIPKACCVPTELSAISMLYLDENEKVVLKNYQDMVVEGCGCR

T4 sequence (P12643 283-396): as the sequence (P12643 283-396, one chain of several) above

B1: FC-(Alk6)2 (Fc fusion, UniProt O00238 14-126, looked up)
chain: KKEDGESTAPTPRPKVLRCKCHHHCPEDSVNNICSTDGYCFTMIEEDDSGLPVVTSGCLGLEGSDFQCRDTPIPHQRRSIECCTERNECNKDLHPTLPPLKNRDFVDGPIHHR
notes: type 1 receptor Alk6 (BMPR1B) in a recombinant chimeric Fc-receptor; also called chimeric FC-receptor; source: bought: R&D (Cat# 505-PR-100)
B1 showed a Kd [1] of 0.113 nM, a Kd [2] of 0.057 nM and a Kd [3] of 0.046 nM. The Kd [4] was 0.102 nM and the Kd [5] was 0.026 nM.
